# Source: patent publication US20110195900A1, “PEPTIDIC PTH RECEPTOR AGONISTS” (FERRING B.V., priority 2008, published 2011)
# Starred links: 1 amine or outer side, 2 acyl side, 3 side chain; linkers in the order of their positions; H or OH if unused. Non-standard residues stand in square brackets, D forms with d. No end group written: not given here. hSer(OMe) = COCC[C@H](N[*:1])C(=O)[*:2]; 1Nal = N[C@@H](Cc1cccc2ccccc12)C(=O)O; 2Nal = N[C@@H](Cc1ccc2ccccc2c1)C(=O)O; β3hI = CC[C@H](C)[C@H](N)CC(=O)O; β3hE = N[C@@H](CCC(=O)O)CC(=O)O; Nle = CCCC[C@H](N)C(=O)O; β3hA = C[C@H](N)CC(=O)O; Aib = CC(C)(N)C(=O)O; βAla = NCCC(=O)O
# B1: [Nle^8,18, β-hGlu^19, 1-Nal^23, Leu^27] hPTH (1-34)-NH2 (peptide)
# peptide: SVSEIQL[Nle]HNLGKHLNS[Nle][β3hE]RVE[1Nal]LRKLLQDVHNF-NH2
# modifications: N-terminus assumed
# SMILES: CCCC[C@H](NC(=O)[C@H](CO)NC(=O)[C@H](CC(N)=O)NC(=O)[C@H](CC(C)C)NC(=O)[C@H](Cc1c[nH]cn1)NC(=O)[C@H](CCCCN)NC(=O)CNC(=O)[C@H](CC(C)C)NC(=O)[C@H](CC(N)=O)NC(=O)[C@H](Cc1c[nH]cn1)NC(=O)[C@H](CCCC)NC(=O)[C@H](CC(C)C)NC(=O)[C@H](CCC(N)=O)NC(=O)[C@@H](NC(=O)[C@H](CCC(=O)O)NC(=O)[C@H](CO)NC(=O)[C@@H](NC(=O)[C@@H](N)CO)C(C)C)[C@@H](C)CC)C(=O)N[C@@H](CCC(=O)O)CC(=O)N[C@@H](CCCNC(=N)N)C(=O)N[C@H](C(=O)N[C@@H](CCC(=O)O)C(=O)N[C@@H](Cc1cccc2ccccc12)C(=O)N[C@@H](CC(C)C)C(=O)N[C@@H](CCCNC(=N)N)C(=O)N[C@@H](CCCCN)C(=O)N[C@@H](CC(C)C)C(=O)N[C@@H](CC(C)C)C(=O)N[C@@H](CCC(N)=O)C(=O)N[C@@H](CC(=O)O)C(=O)N[C@H](C(=O)N[C@@H](Cc1c[nH]cn1)C(=O)N[C@@H](CC(N)=O)C(=O)N[C@@H](Cc1ccccc1)C(N)=O)C(C)C)C(C)C
# B2: [Aib^1, Nle^8,18, β-Ala^17, 2-Nal^23] hPTH (1-34)-NH2 (peptide)
# peptide: [Aib]VSEIQL[Nle]HNLGKHLN[βAla][Nle]ERVE[2Nal]LRKKLQDVHNF-NH2
# modifications: N-terminus assumed
# SMILES: CCCC[C@H](NC(=O)CCNC(=O)[C@H](CC(N)=O)NC(=O)[C@H](CC(C)C)NC(=O)[C@H](Cc1c[nH]cn1)NC(=O)[C@H](CCCCN)NC(=O)CNC(=O)[C@H](CC(C)C)NC(=O)[C@H](CC(N)=O)NC(=O)[C@H](Cc1c[nH]cn1)NC(=O)[C@H](CCCC)NC(=O)[C@H](CC(C)C)NC(=O)[C@H](CCC(N)=O)NC(=O)[C@@H](NC(=O)[C@H](CCC(=O)O)NC(=O)[C@H](CO)NC(=O)[C@@H](NC(=O)C(C)(C)N)C(C)C)[C@@H](C)CC)C(=O)N[C@@H](CCC(=O)O)C(=O)N[C@@H](CCCNC(=N)N)C(=O)N[C@H](C(=O)N[C@@H](CCC(=O)O)C(=O)N[C@@H](Cc1ccc2ccccc2c1)C(=O)N[C@@H](CC(C)C)C(=O)N[C@@H](CCCNC(=N)N)C(=O)N[C@@H](CCCCN)C(=O)N[C@@H](CCCCN)C(=O)N[C@@H](CC(C)C)C(=O)N[C@@H](CCC(N)=O)C(=O)N[C@@H](CC(=O)O)C(=O)N[C@H](C(=O)N[C@@H](Cc1c[nH]cn1)C(=O)N[C@@H](CC(N)=O)C(=O)N[C@@H](Cc1ccccc1)C(N)=O)C(C)C)C(C)C
# B3: [Ala^1, Nle^8,18, β-Ala^17, 2-Nal^23] hPTH (1-34)-NH2 (peptide)
# peptide: AVSEIQL[Nle]HNLGKHLN[βAla][Nle]ERVE[2Nal]LRKKLQDVHNF-NH2
# modifications: N-terminus assumed
# SMILES: CCCC[C@H](NC(=O)CCNC(=O)[C@H](CC(N)=O)NC(=O)[C@H](CC(C)C)NC(=O)[C@H](Cc1c[nH]cn1)NC(=O)[C@H](CCCCN)NC(=O)CNC(=O)[C@H](CC(C)C)NC(=O)[C@H](CC(N)=O)NC(=O)[C@H](Cc1c[nH]cn1)NC(=O)[C@H](CCCC)NC(=O)[C@H](CC(C)C)NC(=O)[C@H](CCC(N)=O)NC(=O)[C@@H](NC(=O)[C@H](CCC(=O)O)NC(=O)[C@H](CO)NC(=O)[C@@H](NC(=O)[C@H](C)N)C(C)C)[C@@H](C)CC)C(=O)N[C@@H](CCC(=O)O)C(=O)N[C@@H](CCCNC(=N)N)C(=O)N[C@H](C(=O)N[C@@H](CCC(=O)O)C(=O)N[C@@H](Cc1ccc2ccccc2c1)C(=O)N[C@@H](CC(C)C)C(=O)N[C@@H](CCCNC(=N)N)C(=O)N[C@@H](CCCCN)C(=O)N[C@@H](CCCCN)C(=O)N[C@@H](CC(C)C)C(=O)N[C@@H](CCC(N)=O)C(=O)N[C@@H](CC(=O)O)C(=O)N[C@H](C(=O)N[C@@H](Cc1c[nH]cn1)C(=O)N[C@@H](CC(N)=O)C(=O)N[C@@H](Cc1ccccc1)C(N)=O)C(C)C)C(C)C
# B4: [Nle^8,18, β-Ala^19, 1-Nal^23, Leu^27] hPTH-(1-34)-NH2 (peptide)
# peptide: SVSEIQL[Nle]HNLGKHLNS[Nle][βAla]RVE[1Nal]LRKLLQDVHNF-NH2
# modifications: N-terminus assumed
# SMILES: CCCC[C@H](NC(=O)[C@H](CO)NC(=O)[C@H](CC(N)=O)NC(=O)[C@H](CC(C)C)NC(=O)[C@H](Cc1c[nH]cn1)NC(=O)[C@H](CCCCN)NC(=O)CNC(=O)[C@H](CC(C)C)NC(=O)[C@H](CC(N)=O)NC(=O)[C@H](Cc1c[nH]cn1)NC(=O)[C@H](CCCC)NC(=O)[C@H](CC(C)C)NC(=O)[C@H](CCC(N)=O)NC(=O)[C@@H](NC(=O)[C@H](CCC(=O)O)NC(=O)[C@H](CO)NC(=O)[C@@H](NC(=O)[C@@H](N)CO)C(C)C)[C@@H](C)CC)C(=O)NCCC(=O)N[C@@H](CCCNC(=N)N)C(=O)N[C@H](C(=O)N[C@@H](CCC(=O)O)C(=O)N[C@@H](Cc1cccc2ccccc12)C(=O)N[C@@H](CC(C)C)C(=O)N[C@@H](CCCNC(=N)N)C(=O)N[C@@H](CCCCN)C(=O)N[C@@H](CC(C)C)C(=O)N[C@@H](CC(C)C)C(=O)N[C@@H](CCC(N)=O)C(=O)N[C@@H](CC(=O)O)C(=O)N[C@H](C(=O)N[C@@H](Cc1c[nH]cn1)C(=O)N[C@@H](CC(N)=O)C(=O)N[C@@H](Cc1ccccc1)C(N)=O)C(C)C)C(C)C
# Legend:
# [1] = molecular target: human parathyroid hormone receptor 2 (human, UniProt P49190); test: cell-based or functional assay
# [2] = molecular target: human parathyroid hormone receptor 1 (human, UniProt Q03431); test: cell-based or functional assay
Binder,"hPTHR-2 EC50 (nM), luciferase reporter gene assay [1]","hPTHR-1 EC50 (nM), CRE-luciferase reporter gene assay [2]"
"SVSEIQL[Nle]HSLGKHLNS[β3hI]ERVE[1Nal]LRKLLQDVHNF-NH2 [[Nle^8, Ser^10, β-hIle^18, 1-Nal^23, Leu^27] hPTH (1-34)-NH2]",17 nM,0.18 nM
"SVSEIQL[Nle]HNLGKHLSS[β3hI]ERVE[1Nal]LRKLLQDVHNF-NH2 [[Nle^8, Ser^16, β-hIle^18, 1-Nal^23, Leu^27] hPTH (1-34)-NH2]",20 nM,0.19 nM
"SVSEIQL[Nle]HNLGKHLNS[β3hA]ERVE[1Nal]LRKLLQDVHNF-NH2 [[Nle^8, β-hAla^18, 1-Nal^23, Leu^27] hPTH (1-34)-NH2]",61 nM,0.22 nM
"SVSEIQL[Nle]HNLGKHLNS[β3hI]ERVE[1Nal]LRKLLQDVHEF-NH2 [[Nle^8, β-hIle^18, 1-Nal^23, Leu^27, Glu^33] hPTH (1-34)-NH2]",41 nM,0.12 nM
"SVSEIQL[Nle]HELGKHLNS[β3hI]ERVE[1Nal]LRKLLQDVHNF-NH2 [[Nle^8, Glu^10, β-hIle^18, 1-Nal^23, Leu^27] hPTH (1-34)-NH2]",3 nM,0.13 nM
B1,29 nM,0.32 nM
"SVSEIQL[Nle]HNLGKHLNS[β3hI]ERVE[1Nal]LRKLLQHVHNF-NH2 [[Nle^8, β-hIle^18, 1-Nal^23, Leu^27, His^30] hPTH (1-34)-NH2]",13 nM,0.18 nM
B2,46 nM,0.22 nM
"SVSEIQL[Nle]HNLGKHLNS[β3hI]ERVE[1Nal]LRKLLQDVHNF-NH2 [[Nle^8, β-hIle^18, 1-Nal^23, Leu^27] hPTH (1-34)-NH2]",32 nM,0.14 nM
"SVSEIQL[Nle]HNLGKHLES[β3hI]ERVE[1Nal]LRKLLQDVHNF-NH2 [[Nle^8, Glu^16, β-hIle^18, 1-Nal^23, Leu^27] hPTH (1-34)-NH2]",37 nM,0.16 nM
"AVSEIQL[Nle]HNLGKHLN[βAla][Nle]ERVE[1Nal]LRKLLQDVHNF-NH2 [[Ala^1, Nle^8,18, β-Ala^17, 1-Nal^23, Leu^27] hPTH (1-34)-NH2]",89 nM,0.2 nM
B3,95 nM,0.22 nM
B4,18 nM,0.26 nM
"SVSEIQL[Nle]HNLGKHLN[βAla][hSer(OMe)]ERVE[1Nal]LRKLLQDVHNF-NH2 [[Nle^8, β-Ala^17, hSer(OMe)^18, 1-Nal^23, Leu^27] hPTH (1-34)-NH2]",93 nM,0.13 nM
"[Aib]VSEIQL[Nle]HNLGKHLN[βAla][hSer(OMe)]ERVE[1Nal]LRKLLQDVHNF-NH2 [[Aib^1, Nle^8, β-Ala^17, hSer(OMe)^18, 1-Nal^23, Leu^27] hPTH (1-34)-NH2]",49 nM,0.06 nM
"SVSEIQL[hSer(OMe)]HNLGKHLN[βAla][hSer(OMe)]ERVE[1Nal]LRKLLQDVHNF-NH2 [[hSer(OMe)^8,18, β-Ala^17, 1-Nal^23, Leu^27] hPTH(1-34)-NH2]",> 270 nM,0.88 nM
"SVSEIQL[Nle]HNLGKHLN[βAla][Nle]ERVE[1Nal]LRKLLQDVHNF-NH2 [[Nle^8,18, β-Ala^17, 1-Nal^23, Leu^27] hPTH (1-34)-NH2]",47 nM,0.12 nM
"SVSEIQL[Nle]HNLGKHLNS[β3hI]ERVE[1Nal]LRKLLQSVHNF-NH2 [[Nle^8, β-hIle^18, 1-Nal^23, Leu^27, Ser^30] hPTH (1-34)-NH2]",19 nM,0.19 nM
"SVSEIQL[Nle]HNLGKHLNS[β3hI]ERVE[1Nal]LRKLLQDVHKF-NH2 [[Nle^8, β-hIle^18, 1-Nal^23, Leu^27, Lys^33] hPTH (1-34)-NH2]",32 nM,0.15 nM
"[Aib]VSEIQL[Nle]HNLGKHLN[βAla][Nle]ERVE[1Nal]LRKLLQDVHNF-NH2 [[Aib^1, Nle^8,18, β-Ala^17, 1-Nal^23, Leu^27] hPTH (1-34)-NH2]",31 nM,0.06 nM
